From WO2001096599A2

Target: recombinant ED-B protein (UniProt P02751)
Assay: I-125 labelled antibody on a small column of ED-B sepharose, elution with TEA pH 11

Sequence of UniProt P02751 (P02751 1266-1356 limits assumed): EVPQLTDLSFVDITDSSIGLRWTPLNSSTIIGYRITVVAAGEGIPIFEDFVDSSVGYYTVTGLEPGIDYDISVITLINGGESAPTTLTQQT

immuno-reactivity (% of labeled material that bound to the ED-B sepharose column and was eluted): 85 to 95%
Substance: L19, human recombinant antibody directed against the Extra Domain B
